Data taken from the supplement of paper PMC10567573.
± gives the standard deviation.

Assay: protein stability index of a GFP-peptide fusion (GPS, HEK-293T) (PSI 1-6); higher = more stable
[1] = treatment: DMSO, c terminus: a fixed tail appended
[2] = treatment: MLN4924 1 uM, 8 h, c terminus: a fixed tail appended
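Note: 24-mer peptide tiles fused after GFP, lentivirally expressed, FACS-sorted into six equal bins by GFP/DsRed ratio, decoded by Illumina sequencing, PSI is the read-weighted mean bin number.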

Sequence | protein stability index [1] | protein stability index [2] | protein stability index (treatment: DMSO, c terminus: native) | protein stability index (treatment: MLN4924 1 uM, 8 h, c terminus: native)
PADALQYLLQFARKPVEAESVEGV [INTS4] | 2.9 ± 0.29 | 2.98 ± 0.41 | – | –
PAFDALGQLTGGYKPNPQIYVKLI [OAS1] | 2.34 ± 0.14 | 2.15 ± 0.26 | – | –
PAFLKWLSLASLLVYVAAFSIGLG [SLC2A12] | 3.28 ± 0.15 | 3.48 ± 0.79 | – | –
PALKECIQGADTIRCVYILDPWFA [CRY1] | 2.95 ± 0.55 | 2.73 ± 0.74 | – | –
PAMVRISKPKTFQAYLDDCHRRYS [YPEL3] | 2.96 ± 0.11 | 2.92 ± 0.17 | – | –
PAPASPAISVVGVSAGGHTLSRPP [TFE3] | 4.37 ± 0.28 | 4.38 ± 0.25 | – | –
PDGLMYQKFRNQFLSFSMYQSFVQ [TMEM120A] | 2.68 ± 0.59 | 2.33 ± 0.76 | – | –
PDLPFQIKPSENHYSLLTSQPLDR [PCDHGC5] | 3.97 ± 0.22 | 4.13 ± 0.14 | – | –
PEITTEDIKAAFAPFGRISDARVV [TIA1] | 3.34 ± 0.21 | 3.3 ± 0.13 | – | –
PEKHQVPEKLIWGDQDPLSKIPFK [WDR88] | 3.72 ± 0.22 | 4.26 ± 0.38 | – | –
PEPLFLGEEDFSLSATIGSILREL [SERTAD3] | 2.6 ± 0.12 | 2.57 ± 0.31 | – | –
PEQLVLTLLEAEPPHVLISRPSAP [ESR2] | 2.89 ± 0.31 | 3.1 ± 0.48 | – | –
PESQMCRKFSRECEDQKQIKKPES [NEUROD6] | 5.09 ± 0.38 | 5.31 ± 0.22 | – | –
PETQARLEALLEAAGIGKLSTADG [ANKRD17] | 2.95 ± 0.32 | 3.18 ± 0.42 | – | –
PFKRFLRKKSKPKKCVKKFVEYCD [SMOC2] | 2.45 ± 0.091 | 2.59 ± 0.26 | – | –
PGLLEEDNQWMTQINRLQKLIDRL [NECAB1] | 2.51 ± 0.23 | 2.88 ± 0.2 | – | –
PGPERLFDSHRLPGDCFLLLVLLL [AUP1] | 2.46 ± 0.54 | 2.14 ± 0.59 | – | –
PITAHAEVEVVEEAKCCCFFKRKR [CSNK1G1] | 2.96 ± 0.73 | 3.23 ± 1.2 | – | –
PLAEQTPLTLQSQPKEPQLTCDSA [ZSCAN9] | 5.25 ± 0.28 | 5.35 ± 0.36 | – | –
PLLCPSYQSYFKTIEELQQKILCA [KRT34] | 4 ± 0.19 | – | – | –
PLLLLCNIKPRRYLTVVFEHDAWF [SLC29A1] | 3.09 ± 0.71 | 3.06 ± 0.52 | – | –
PLLMNRQRVPKVLVENAKNFPQCV [EFHC1] | 2.46 ± 0.44 | 2.47 ± 0.072 | – | –

Sequence | protein stability index [1] | protein stability index [2] | protein stability index (treatment: DMSO, c terminus: native) | protein stability index (treatment: MLN4924 1 uM, 8 h, c terminus: native)
PLVGQDEFFLEQTKKKGVKRPARL [NOP53] | 4.18 ± 0.41 | 4.2 ± 0.19 | – | –
PMQESKAEGNNQAPGEEEEEEEEA [CHGA] | 5.49 ± 0.39 | 5.74 ± 0.15 | – | –
PNRAGAPGESLECPAELRPQVPQP [TRAF3IP2] | 4.97 ± 0.16 | 5.07 ± 0.26 | – | –
PPAEEAEQPGALAREFLAAMEPEP [FKBP8] | 5.49 ± 0.45 | 5.57 ± 0.072 | – | –
PPAPAPLPPPSAPSLQPSRKLSPT [SCAMP3] | 5.34 ± 0.25 | 5.32 ± 0.12 | – | –
PPGLPAETIKDLMRQFLRGLDFLH [CDK4] | 2.21 ± 0.075 | 2.57 ± 0.7 | – | –
PPGYSAWIKEEAAERYLYFPNWAM [SLC6A17] | 2.33 ± 0.28 | 2.11 ± 0.4 | – | –
PPPPYEAVVSQMDQEQGSSFQMSE [FAM189A2] | 5.54 ± 0.27 | 5.43 ± 0.096 | – | –
PPTLQEAGLSHTEVLFVQDLTDE [FAF2] | – | – | 4.88 ± 0.25 | 4.92 ± 0.15
PQEEIATKKLRLTKPSKSAALHID [INTS4] | 4.36 ± 0.047 | 4.46 ± 0.1 | – | –
PQKLLGCSPALKRSHSDSLDHDIF [CDC25A] | 3.12 ± 0.28 | 3.24 ± 0.33 | – | –
PQNGSETGWARKGLGNTWPGASGS [ATP23] | 4.32 ± 0.24 | 4.33 ± 0.34 | – | –
PQQHFLEEKQASLWVQGDIFRSKL [CDC14A] | 3.12 ± 0.18 | 3.14 ± 0.28 | – | –
PQTLIMAYDYAKEVNSAEELEGLI [FEM1C] | 3.75 ± 0.32 | 3.56 ± 0.27 | – | –
PRAAGTDGSDFQHRERVAMHYQMS [JAGN1] | 3.96 ± 0.25 | 4.06 ± 0.18 | – | –
PRLCYLVKEGGSYGFSLKTVQGKK [PDZK1] | 3.02 ± 0.12 | – | – | –
PRRLGRLKYQAPDIDVQLSSELTD [NOP53] | 4.11 ± 0.48 | 4.14 ± 0.34 | – | –
PSAAGAPASAPGEPRQRRLLLLDL [ANKRD9] | 2.86 ± 0.29 | 3.11 ± 0.4 | – | –
PSKVEVTEKTTTVLSESSGPSNTS [C2CD2L] | 5.43 ± 0.095 | 5.44 ± 0.23 | – | –
PSPGVLCGSARPKPYDPPGEKMVA [ATF4] | 4.37 ± 0.28 | 4.6 ± 0.23 | – | –
PSRGGNQLPRPPIVGGNKGRSGPL [WAS] | 4.6 ± 0.07 | 4.73 ± 0.22 | – | –
PSVCSENIHPQVLLPDQARGEVPW [ZNF263] | 4.19 ± 0.22 | 4.34 ± 0.37 | – | –

Sequence | protein stability index [1] | protein stability index [2] | protein stability index (treatment: DMSO, c terminus: native) | protein stability index (treatment: MLN4924 1 uM, 8 h, c terminus: native)
PTMAPAGQPAPVSMVPPSPAMAAS [SNAP91] | 4.75 ± 0.22 | 4.89 ± 0.28 | – | –
PTVTTSWQSESLPVSLSASQSWHT [BCL2L13] | 3.25 ± 0.31 | 3.12 ± 0.22 | – | –
PWLWSEQQVCQWLLWATNEFSLVN [ETS2] | 2.76 ± 0.47 | 2.42 ± 0.46 | – | –
PWSPCSARFITDFLDNGYGHCLLD [ADAMTS4] | 2.05 ± 0.21 | 2.21 ± 0.41 | – | –
PYFSPSASFHHKLHHKRLAKECML [CBY2] | 2.56 ± 0.11 | 2.5 ± 0.32 | – | –
PYMNPSPFTVSPNTHVSQVFNLFR [CLCN6] | 2.64 ± 0.16 | 2.73 ± 0.2 | – | –
PYQALRLWARGTWTQATGLGCALL [SOAT2] | 2.09 ± 0.46 | 2.05 ± 0.3 | – | –
PYQCSQCSKSYSRRSFLIEHQRSH [ZSCAN9] | 4.3 ± 0.2 | 4.45 ± 0.43 | – | –
QAIYVIDFFWNETWYLKTIDICHD [DHCR7] | 3.14 ± 0.37 | 3.25 ± 0.4 | – | –
QARTQKLQGLIPGARYEVTVVSVR [TNXB] | – | 2.22 ± 0.42 | – | –
QASCDEAHKMKFSDLFSLAEEYED [INTS3] | 4.61 ± 0.23 | 4.77 ± 0.27 | – | –
QATKASLKERFAFLFNSELLSDVR [BTBD1] | 2.55 ± 0.22 | 2.67 ± 0.34 | – | –
QCGPQTGLQSPGTLQPPEFLYSHG [TBX5] | 3.41 ± 0.25 | 3.37 ± 0.34 | – | –
QEELNRKAEELDRRERELQHAALG [SCAMP3] | 5.39 ± 0.21 | 5.24 ± 0.55 | – | –
QEIMEKYNIKLKWTNQQKLYSRTG [CFHR2] | 2.45 ± 0.32 | 2.66 ± 0.35 | – | –
QELLERGLLQLDHRGLRCSWEGLA [RSAD1] | 2.31 ± 0.2 | 2.6 ± 0.23 | – | –
QEVSSVRSLSSTGSLPSHAPPSED [DLC1] | 5.42 ± 0.22 | 5.44 ± 0.24 | – | –
QEVVELPVTERQIEREHLIQLRRW [TBC1D10A] | 4.05 ± 0.25 | 4.22 ± 0.2 | – | –
QEYESIDPGQQFTWEHSNLEVNKP [PTPRD] | 4.94 ± 0.1 | 4.93 ± 0.069 | – | –
QFFTKGYQETISDVLNDAIFDEDH [GCH1] | 4.01 ± 0.33 | 3.92 ± 0.07 | – | –
QFTSSSSIKGSSGLGGGSSRTSCR [KRT17] | 4.34 ± 0.12 | 4.33 ± 0.26 | – | –
QHLGEYENVLAALEGLNLSILKAM [NECAB1] | 2.25 ± 0.24 | 2.38 ± 0.23 | – | –
